Data reported in US8067674B2, “Desaturase genes, enzymes encoded thereby, and uses thereof” (Abbott Laboratories, priority 2002, dated 2011).

Tested on: fatty acid substrates
Assay: Yeast expression of the omega-3 desaturase (SDD17, sdd17 in pYX242) with exogenous fatty acid substrates, FAME/GC analysis
Type: cell-based, Saccharomyces cerevisiae (SC334)
Settings: for % Conversion: 24° C.
Source text: To determine the substrate specificity and the class of reaction catalyzed by the SDD17-protein, sdd17 was heterologously expressed in a Saccharomyces cerevisiae (SC334). Because S. cerevisiae cannot synthesize fatty acids beyond OA (18:1n-9), it is an ideal system to use to determine enzyme activity on substrates longer than OA because no background enzyme activity will be detected. Suitable fatty acid substrates can be exogenously supplied to the host which are taken up by the cell and acted on by the expressed protein of the transformed sdd17 gene.
Clone pRSP19, which contained the full-length omega-3 desaturase (sdd17) from S. diclina cloned into pYX242, was transformed into Saccharomyces cerevisiae (SC334) using the “Alkali-Cation Yeast Transformation”-brand kit (BIO 101, Vista, Calif.). Transformants were selected for leucine auxotrophy on media lacking leucine (DOB [-Leu]). To detect the specific desaturase activity of these clones, transformants were grown in the presence of 50 μM of each of LA (18:2n-6), GLA (18:3n-6),
DGLA (20:3n-6), AA (20:4n-6), and adrenic acid (22:4n-6). Conversion of these exogenously supplied fatty acid substrates into a product having one additional unsaturation indicates the presence of a specific desaturase activity that is not found in the wild-type S. cerevisiae:
The negative control strain was S. cerevisiae transformed with the pYX242 vector. The experimental cultures and the control cultures were grown simultaneously and analyzed.
The cultures were vigorously agitated (250 rpm) and grown for 48 hours at 24° C. in the presence of 50 μM (final concentration) of the various substrates (see Table 3). The cells were spun down, washed once in distilled water, and the pellets resuspended in methanol; chloroform was added along with tritridecanoin (as an internal standard). These mixtures were incubated for at least an hour at room temperature, or at 4° C. overnight. The chloroform layer was extracted and filtered through a Whatman filter with 1 gm anhydrous sodium sulfate to remove particulate matter and residual water. The organic solvents were evaporated at 40° C. under a stream of nitrogen. The extracted lipids were then converted to fatty acid methyl esters (FAME) for gas chromatography analysis (GC) by adding 2 ml 0.5 N potassium hydroxide in methanol to a closed tube. The samples were heated to 95° C.-100° C. for 30 minutes and cooled to room temperature. Approximately 2 ml 14% borontrifluoride in methanol was added and the heating repeated. After the extracted lipid mixture cooled, 2 ml of water and 1 ml of hexane were added to extract the FAME for analysis by GC. The percent conversion was calculated using the formula: […]
(i.e. 15° C.). Here, 50 μM of exogenous substrate was added to the transformants and the cultures were grown for 48 hours at 15° C. Fatty acid analysis was carried out as described above. The overall uptake of substrate by S. cerevisiae at 15° C. was lower than that seen at 24° C. (compare Table 3 & Table 4). However the percent conversion of substrate to product by the enzyme increased at 15° C. Since the presence of lower concentration of exogenous fatty acid substrate seemed to improve the activity of the enzyme, it is possible that fatty acid substrates at high concentrations may exert a feed-back inhibition on this enzyme. […]

B1: SDD17: omega-3 desaturase of 358 amino acid residues (SEQ ID NO: 26) encoded by sdd17 from Saprolegnia diclina (ATCC 56851) (protein, listed as Saprolegnia diclina)
chain: MTEDKTKVEFPTLTELKHSIPNACFESNLGLSLYYTARAIFNASASAALLYAARSTPFIADNVLLHALVCATYIYVQGVIFWGFFTVGHDCGHSAFSRYHSVNFIIGCIMHSAILTPFESWRVTHRHHHKNTGNIDKDEIFYPHRSVKDLQDVRQWVYTLGGAWFVYLKVGYAPRTMSHFDPWDPLLLRRASAVIVSLGVWAAFFAAYAYLTYSLGFAVMGLYYYAPLFVFASFLVITTFLHHNDEATPWYGDSEWTYVKGNLSSVDRSYGAFVDNLSHHIGTHQVHHLFPIIPHYKLNEATKHFAAAYPHLVRRNDEPIITAFFKTAHLFVNYGAVPETAQIFTLKESAAAAKAKSD
percent conversion of substrate to product at 15° C. compared with 24° C. (15° C. vs 24° C., 50 μM substrate, 48 hours): increased
% Conversion (20:3 n-6 (DGLA) to 20:4 n-3 (ETA) (Delta 17), 48 hours, 50 μM substrate): 5%
% Conversion (20:4 n-6 (AA) to 20:5 n-3 (EPA) (Delta 17), 48 hours, 50 μM substrate): 13.8%
% Conversion (22:4 n-6 (adrenic acid) to 22:5 n-3 (DPA) (Delta 19), 48 hours, 50 μM substrate): 4%
desaturation of C18 omega-6 fatty acyl substrates to their corresponding omega-3 fatty acids (under the conditions tested): did not desaturate
